Laboratory results reported in article PMC8593141.

Biological target: mouse Kv4.2 channel with GFP fused to the C-terminus (Kv4.2g) (mouse) (UniProt Q9Z0V2)
Experiment: co-IP; anti-GFP IP (Pierce Classic Magnetic IP/Co-IP kit, overnight 4°C, lysis buffer with 20 mM NEM and protease inhibitors) from lysates (0.5 mg protein) of HEK cells expressing Kv4.2g + HA-KChIP2a + HA-DPP10c, with or without co-transfected SUMO2 + Ubc9; blot for α-adaptin, stripped and re-probed for Kv4.2g; OD α-adaptin ÷ OD Kv4.2g

UniProt Q9Z0V2, sequence (Q9Z0V2 whole entry, the tested form may be a part): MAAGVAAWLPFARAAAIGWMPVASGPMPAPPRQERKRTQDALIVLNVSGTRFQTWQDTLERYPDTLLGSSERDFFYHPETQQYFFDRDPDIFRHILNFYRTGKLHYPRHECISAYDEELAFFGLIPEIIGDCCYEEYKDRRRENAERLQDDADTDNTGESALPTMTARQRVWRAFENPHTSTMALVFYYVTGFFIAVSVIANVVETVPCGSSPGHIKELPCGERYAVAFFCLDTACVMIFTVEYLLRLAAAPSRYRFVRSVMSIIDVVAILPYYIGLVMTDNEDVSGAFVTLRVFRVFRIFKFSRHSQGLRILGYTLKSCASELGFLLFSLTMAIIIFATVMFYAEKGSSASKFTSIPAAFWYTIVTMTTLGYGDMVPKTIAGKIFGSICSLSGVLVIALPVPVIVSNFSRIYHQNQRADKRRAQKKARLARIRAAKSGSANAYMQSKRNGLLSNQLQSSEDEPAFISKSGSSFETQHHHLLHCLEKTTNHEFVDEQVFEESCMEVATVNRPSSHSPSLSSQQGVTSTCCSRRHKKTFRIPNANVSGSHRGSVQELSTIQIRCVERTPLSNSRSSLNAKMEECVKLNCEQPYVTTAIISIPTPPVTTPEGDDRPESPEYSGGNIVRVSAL

OD α-adaptin ÷ OD Kv4.2g in the anti-GFP IP (control, without SUMO2 + Ubc9): 0.02
OD α-adaptin ÷ OD Kv4.2g in the anti-GFP IP (with co-expressed SUMO2 + Ubc9): 0.02
Substance: α-adaptin subunit of adaptor protein 2 complex (AP2) (from UniProt O95782 1-977) (natural protein)
